# According to publication PMC5674072 (2017):
# B1: 3x Flag Matrin 3 wild-type (human) [human] / Aly (AlyRef) of NSC-34 cells [mouse (endogenous in NSC-34)] (parent complex)
# chain 1: MSKSFQQSSLSRDSQGHGRDLSAAGIGLLAAATQSLSMPASLGRMNQGTARLASLMNLGMSSSLNQQGAHSALSSASTSSHNLQSIFNIGSRGPLPLSSQHRGDADQASNILASFGLSARDLDELSRYPEDKITPENLPQILLQLKRRRTEEGPTLSYGRDGRSATREPPYRVPRDDWEEKRHFRRDSFDDRGPSLNPVLDYDHGSRSQESGYYDRMDYEDDRLRDGERCRDDSFFGETSHNYHKFDSEYERMGRGPGPLQERSLFEKKRGAPPSSNIEDFHGLLPKGYPHLCSICDLPVHSNKEWSQHINGASHSRRCQLLLEIYPEWNPDNDTGHTMGDPFMLQQSTNPAPGILGPPPPSFHLGGPAVGPRGNLGAGNGNLQGPRHMQKGRVETSRVVHIMDFQRGKNLRYQLLQLVEPFGVISNHLILNKINEAFIEMATTEDAQAAVDYYTTTPALVFGKPVRVHLSQKYKRIKKPEGKPDQKFDQKQELGRVIHLSNLPHSGYSDSAVLKLAEPYGKIKNYILMRMKSQAFIEMETREDAMAMVDHCLKKALWFQGRCVKVDLSEKYKKLVLRIPNRGIDLLKKDKSRKRSYSPDGKESPSDKKSKTDGSQKTESSTEGKEQEEKSGEDGEKDTKDDQTEQEPNMLLESEDELLVDEEEAAALLESGSSVGDETDLANLGDVASDGKKEPSDKAVKKDGSASAAAKKKLKKVDKIEELDQENEAALENGIKNEENTEPGAESSENADDPNKDTSENADGQSDENKDDYTIPDEYRIGPYQPNVPVGIDYVIPKTGFYCKLCSLFYTNEEVAKNTHCSSLPHYQKLKKFLNKLAEERRQKKET
# chain 2: not shown
# Variants of: B1
# Assay: co-immunoprecipitation (Aly IP) followed by western blot, quantified; NSC-34 stable cell lines; five replicates; WT vs 115: p = 0.9670; read off a plot
row,ratio to parent,Variant
1,~1.2,chain 1 F115C

# Variants of: B1
# Assay: co-immunoprecipitation (Aly IP) followed by western blot, quantified; NSC-34 stable cell lines; five replicates; WT vs 85: p = 0.6561; read off a plot
row,ratio to parent,Variant
1,~1.4,chain 1 S85C

# Variants of: B1
# Assay: co-immunoprecipitation (Aly IP) followed by western blot, quantified; NSC-34 stable cell lines; five replicates; WT vs 154 p = 0.2250; read off a plot
row,ratio to parent,Variant
1,~1.6,chain 1 P154S

# Variants of: B1
# Assay: co-immunoprecipitation (Aly IP) followed by western blot, quantified; NSC-34 stable cell lines; five replicates; WT vs 622 p = 0.9611; read off a plot
row,ratio to parent,Variant
1,~1.2,chain 1 T622A
